In publication PMC3234216 (PLoS Pathogens, 2011):

Target: PA63 heptamer (63 kD form of anthrax toxin protective antigen) (Bacillus anthracis, UniProt P13423)
Test: NMR titration
Conditions: both partners purified

Chain of PA63 heptamer (63 kD form of anthrax toxin protective antigen) (P13423 197-764): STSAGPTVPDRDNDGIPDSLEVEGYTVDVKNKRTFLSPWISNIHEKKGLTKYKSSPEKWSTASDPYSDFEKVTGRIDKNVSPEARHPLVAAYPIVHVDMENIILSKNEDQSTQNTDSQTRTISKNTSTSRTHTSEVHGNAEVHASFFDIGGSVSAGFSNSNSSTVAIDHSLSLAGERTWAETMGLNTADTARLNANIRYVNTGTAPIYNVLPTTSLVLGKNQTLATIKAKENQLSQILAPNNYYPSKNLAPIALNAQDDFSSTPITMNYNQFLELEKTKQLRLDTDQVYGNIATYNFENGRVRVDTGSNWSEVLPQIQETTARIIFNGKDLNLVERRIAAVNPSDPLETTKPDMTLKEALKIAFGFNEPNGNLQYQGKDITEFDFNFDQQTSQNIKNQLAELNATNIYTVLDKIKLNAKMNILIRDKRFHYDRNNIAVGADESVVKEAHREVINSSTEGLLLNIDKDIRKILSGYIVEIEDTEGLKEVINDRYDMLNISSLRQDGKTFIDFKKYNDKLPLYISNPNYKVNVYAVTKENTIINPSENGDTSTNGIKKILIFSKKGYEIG

B1: ANTXR2 VWA-domain (anthrax toxin receptor type 2, extracellular von Willebrand factor type A domain) (domain or fragment)
chain: SCRRAFDLYFVLDKSGSVANNWIEIYNFVQQLAERFVSPEMRLSFIVFSSQATIILPLTGDRGKISKGLEDLKRVSPVGETYIHEGLKLANEQIQKAGGLKTSSIIIALTDGKLDGLVPSYAEKEAKISRSLGASVYCVGVLDFEQAQLERIADSKEQVFPVKGGFQALKGIINSILAQSC
notes: also called capillary morphogenesis protein 2; CMG2
  binding result: binds
